Legend:
混合人源IL-4、IL-5 (human) = 混合人源IL-4、IL-5 (human) (UniProt P05112); experiment: cell-based or functional assay
IL-4Rα [1] = biological target: IL-4Rα (UniProt P24394); experiment: blocking ELISA: IL-4Rα coated, biotin-IL-4; hIgG is the control, fitted value as printed
IL-5 (human) = IL-5 (human) (UniProt P05113); experiment: cell-based or functional assay
IL-4Rα [2] = biological target: IL-4Rα (UniProt P24394); experiment: cell-based or functional assay

EC50, IL4:IL5=1:1混合诱导TF-1增殖, 板8 (混合人源IL-4、IL-5 (human)) [nM]	EC50, IL4:IL5=1:2混合诱导TF-1增殖, 板10 (混合人源IL-4、IL-5 (human)) [nM]	EC50, IL4:IL5=1:3混合诱导TF-1增殖, 板12 (混合人源IL-4、IL-5 (human)) [nM]	EC50, IL4:IL5=3:1混合诱导TF-1增殖, 板4 (混合人源IL-4、IL-5 (human)) [nM]	EC50, IL4:IL5=4:1混合诱导TF-1增殖, 板2 (混合人源IL-4、IL-5 (human)) [nM]	试验窗口, IL4:IL5=1:1混合诱导TF-1增殖, 板8 (混合人源IL-4、IL-5 (human))	试验窗口, IL4:IL5=1:2混合诱导TF-1增殖, 板10 (混合人源IL-4、IL-5 (human))	试验窗口, IL4:IL5=1:3混合诱导TF-1增殖, 板12 (混合人源IL-4、IL-5 (human))	试验窗口, IL4:IL5=1:4混合诱导TF-1增殖, 板14 (混合人源IL-4、IL-5 (human))	试验窗口, IL4:IL5=2:1混合诱导TF-1增殖, 板6 (混合人源IL-4、IL-5 (human))	试验窗口, IL4:IL5=3:1混合诱导TF-1增殖, 板4 (混合人源IL-4、IL-5 (human))	试验窗口, IL4:IL5=4:1混合诱导TF-1增殖, 板2 (混合人源IL-4、IL-5 (human))	EC50, IL4:IL5=1:1混合诱导TF-1增殖, 板7 (混合人源IL-4、IL-5 (human)) [nM]	EC50, IL4:IL5=1:2混合诱导TF-1增殖, 板9 (混合人源IL-4、IL-5 (human)) [nM]	EC50, IL4:IL5=1:3混合诱导TF-1增殖, 板11 (混合人源IL-4、IL-5 (human)) [nM]	EC50, IL4:IL5=1:4混合诱导TF-1增殖, 板13 (混合人源IL-4、IL-5 (human)) [nM]	EC50, IL4:IL5=2:1混合诱导TF-1增殖, 板5 (混合人源IL-4、IL-5 (human)) [nM]	EC50, IL4:IL5=3:1混合诱导TF-1增殖, 板3 (混合人源IL-4、IL-5 (human)) [nM]	EC50, IL4:IL5=4:1混合诱导TF-1增殖, 板1 (混合人源IL-4、IL-5 (human)) [nM]	试验窗口, IL4:IL5=1:1混合诱导TF-1增殖, 板7 (混合人源IL-4、IL-5 (human))	Substance	further results
1.73	1.96	0.88	0.965	0.825	1.92 倍	1.62 倍	1.76 倍	1.79 倍	1.76 倍	1.67 倍	1.68 倍									Dupilumab+Mepolizumab(1:1混合)	EC50, IL4:IL5=1:4混合诱导TF-1增殖, 板14 (混合人源IL-4、IL-5 (human)): 0.395 nM; EC50, IL4:IL5=2:1混合诱导TF-1增殖, 板6 (混合人源IL-4、IL-5 (human)): 1.28 nM
14.7	0.00264	0.00193	0.000915	0.105	1.07 倍	0.99 倍	0.95 倍	1.03 倍	0.99 倍	1.02 倍	1.01 倍									Human IgG1,kappa Isotype Control (antibody)	
												14.9	0.00104	0.00147	1.1	2.94	0.00132	0.0013	1.11 倍	Mepolizumab (antibody)	试验窗口, IL4:IL5=1:2混合诱导TF-1增殖, 板9 (混合人源IL-4、IL-5 (human)): 1.06 倍; 试验窗口, IL4:IL5=1:3混合诱导TF-1增殖, 板11 (混合人源IL-4、IL-5 (human)): 1.01 倍; 试验窗口, IL4:IL5=1:4混合诱导TF-1增殖, 板13 (混合人源IL-4、IL-5 (human)): 1.14 倍; 试验窗口, IL4:IL5=2:1混合诱导TF-1增殖, 板5 (混合人源IL-4、IL-5 (human)): 0.99 倍; 试验窗口, IL4:IL5=3:1混合诱导TF-1增殖, 板3 (混合人源IL-4、IL-5 (human)): 1.05 倍; 试验窗口, IL4:IL5=4:1混合诱导TF-1增殖, 板1 (混合人源IL-4、IL-5 (human)): 1.02 倍
												0.57	0.899	0.343	0.156	0.452	0.448	0.813	1.77 倍	dupilumab (antibody)	试验窗口, IL4:IL5=1:2混合诱导TF-1增殖, 板9 (混合人源IL-4、IL-5 (human)): 1.68 倍; 试验窗口, IL4:IL5=1:3混合诱导TF-1增殖, 板11 (混合人源IL-4、IL-5 (human)): 1.53 倍; 试验窗口, IL4:IL5=1:4混合诱导TF-1增殖, 板13 (混合人源IL-4、IL-5 (human)): 1.58 倍; 试验窗口, IL4:IL5=2:1混合诱导TF-1增殖, 板5 (混合人源IL-4、IL-5 (human)): 1.6 倍; 试验窗口, IL4:IL5=4:1混合诱导TF-1增殖, 板1 (混合人源IL-4、IL-5 (human)): 1.77 倍
																				hIgG (antibody)	EC50 (IL-4Rα [1]): 2.04 nM; EC50, 中和IL-5诱导的TF-1细胞增殖 (control) (IL-5 (human)): 0.108 nM; EC50, 中和IL-4诱导的TF-1细胞增殖 (control) (IL-4Rα [2]): 0.375 nM; EC50, 中和IL-13诱导的TF-1细胞增殖 (control) (IL-4Rα [2]): 0.131 nM
